In patent US20090226442A1 (Biogen, published 2009):

T1: PSI domain of RON (G502-P544) thioredoxin fusion protein (human, UniProt Q04912 526-568)
T1 construct: Expressed in E. coli; also called PSI domain alone; not shown: thioredoxin (printed 'thiroedexin') fusion partner; purified on
T1 chain: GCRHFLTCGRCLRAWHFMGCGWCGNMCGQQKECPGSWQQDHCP


Key:
[1] = target: T2, human RON (recepteur d'origine nantais, MST1R), full length, expressed on cells (human, UniProt Q04912 25-1400); experiment: flow cytometry on SW480 tumor cells, 4P fit (apparent affinity)
T2 construct: On SW480 tumor cells it is endogenous; also called hRON; SW480-RON cells
Experimental: The binding of RON antibodies to RON expressing tumor cells was analyzed by flow cytometry, and an apparent affinity was calculated. Confluent SW480 cells were detached with 5 mM EDTA, washed 1× with FACS buffer (1% FCS, 0.05% sodium azide, 1×PBS) and resuspended at 0.5-1.0×10⁷/ml. The cells were added to a 96-well V bottom polypropylene plate at 100 μl/well. Antibody dilutions were made up in FACS buffer at 2× final concentration and added to the plate at 100 μl/well. The plate was incubated for 1 hour at 4° C., followed by washing 3× with FACS buffer. The cell pellets were then resuspended in 150 μl of PE labeled goat anti-murine IgG H & L secondary antibody, diluted 1/200, and incubated for 1 hour at 4° C. The cells were then washed 1× with FACS buffer and fixed with 150 μl 3% formaldehyde at room temperature for 10 minutes. The cell pellets were resuspended in 150 μl FACS buffer and analyzed by FACS. The EC50 of binding was calculated from the binding curves using a standard 4P fit equation.

[2] = target: T1, PSI domain of RON (G502-P544) …; experiment: ELISA on plate-coated PSI domain thioredoxin fusion
Experimental: The ability of the antibodies to bind to soluble RON was measured using a standard ELISA protocol. Briefly, soluble RON protein (R&D Systems, catalog 1947) was coated on Nunc Maxisorb ELISA plates at a concentration of […] in PBS overnight at 4° C. Plates were washed 4 times with an automatic washer in PBS, 0.05% Tween 20. Plates were then blocked in PBS+1% BSA for 1-2 hours at room temperature (RT). After washing, serial dilutions of the antibodies in blocking buffer were added to the plate (100 ul/well) and incubated for 1-2 hours at RT. The plate was washed again 4× with automatic washer (PBS, 0.05% tween 20). Next, the plate was incubated with HRP-labelled donkey anti-mouse polyclonal antibody (Jackson Labs 715-035-130) at a dilution of 1:4000 in blocking buffer (100 ul/well) for 0.5-1 hour RT. The plate was washed again 4× with automatic washer (PBS, 0.05% Tween 20). After the final wash step, the plate was developed with TMB solution (25 ml 100 mM sodium acetate, pH to 6 with citric acid, 4 ul 30% H202, 250 ul 42 mM TMB in DMSO) for 5 minutes. The reaction was stopped with 100 ul H₂SO₄. Plates were read at 450 nm wavelength on Molecular Devices Spectramax M5 and Softmax pro V5 software was used to analyze the data.
The PSI domain of RON (G502-P544) was expressed in E. coli as a thiroedexin-fusion protein. The protein was purified on NiNTA agarose (qiagen) followed by preparative size exclusion chromatography (SEC). This protein was used to coat ELISA plates and analyze antibodies for binding using the same protocol described above for binding of antibodies to soluble RON in Example 10.

EC50 [1] [nM]	binding result [2]	Binder
0.07	no binding	1P4A12 murine monoclonal anti-RON antibody (antibody, V domains shown, Whole murine hybridoma antibody; kappa light chain; also called 1P4A12.2; 1.P4A12.2) VH: EVQLQQSGPELVKPGASMKISCKASGYSFTGYTMNWVKQSHGKKLEWIGLINPYNGGTIYNQKFKGKATLTVDKSSSTAYMELLSLTSEDSAVYYCARWLRRGGYAMDYWGQGASVTVSS VL: DILLTQSPAILSVSPGERVSFSCRASQSIGTSIHWYQQRTNGSPRLLIKFASESISGIPSRFSGSGSGTDFTLSINSVESEDIADYYCQQSDSWPLTFGAGTKLEVK
0.34	no binding	1P5B10 murine monoclonal anti-RON antibody (antibody, V domains shown, Whole murine hybridoma antibody; kappa light chain; also called 1P5B10.3; 1.P5B10.3.10) VH: EVQLQQSGPELVKPGASMKISCRAAGFSFTGYTMNWVKQSHGKSLEWIGLINLNNGGTSHNQKFKGKATLTVDKSSSTAYMELLSLTSEDSAVYYCARWLRRGGYAMDYWGQGISVTVSS VL: DILLTQSPAILSVSPGERVSFSCRASQNIGTSIHWYQQRTNGSPRLLIKYASESISGIPSRFSGSGSGTDFTLSINSVESEDIADYYCQQSDSWPLTFGAGTKLELK
0.09	no binding	1P2E7 murine monoclonal anti-RON antibody (antibody, V domains shown, Whole murine hybridoma antibody; kappa light chain; also called 1P2E7.3; 1.P2E7.3) VH: DVQLQESGPGLVKPSQSLSLTCTVTGDSITSDYAWNWIRQFPGNKLEWMGYISYSGSTSYNPSLKSRFSITRDTSKNQFFLQLNSVTTEDSATYYCARGGFYYRYAGPGFAYWGQGTLVTVSA VL: not shown
0.04	no binding	1P3B2 murine monoclonal anti-RON antibody (antibody, V domains shown, Whole murine hybridoma antibody; kappa light chain; also called 1P3B2.2; PTA-8813) VH: EVQLQQSGPELEKPGASVKISCKASGYSFTGYNMNWVKQSNGESLEWIGDIDPYYGGTRYNQKFKGKATLTVDKSSSTAYMQLKSLTSEDSAVYYCAREGRGFAYWGQGTLVTVSA VL: DIQMTQSPASLSASVGETVTITCRASENIYSYLAWYQKKQGKSPQLLVYNAKTSVEGVPSRFSGSGSGIQFSLKINSLQPEDFGSYYCHCQHHYGTLPTFGGGTKLEIK
0.07	no binding	1P4A3 murine monoclonal anti-RON antibody (antibody, V domains shown, Whole murine hybridoma antibody; kappa light chain; also called 1P4A3.3; 1.P4A3.3) VH: EVQLQQSGPELEKPGASVMISCKASGYSFTGYNMNWVKQSTGKSLEWIGDIDPYYDGTRYNQKFKGKATLTADKSSSTAYMQLKSLTSEDSAVYYCTREGRGFAYWGQGTLVTVSA VL: DIQMTQSPASLSASVGETVTITCRASENIYSYLAWYQQKQGKSPQLLVYNAKTLAGGVPSRFSGSGSGTQFSLKINSLQPEDFGSYYCQHYYGTPLTFGAGTKLELK
